Experimental findings from PMC9280406, “The Necrotroph Botrytis cinerea BcSpd1 Plays a Key Role in Modulating Both Fungal Pathogenic Factors and Plant Disease Development” are described below.

In this data set the target is BcSpd1 (Botrytis cinerea, UniProt A0A384JL35 1-465). In words: EMSA; excess unlabeled probe blocked the shift; LightShift Chemiluminescent EMSA kit procedure (Thermo Scientific); buffer, salt, pH and temperature not given. To be noted: protein: recombinant; tags: His (pET28a); chain copies: 2; blunt.

B1: BcQdo promoter fragment 3 (E-BcQdo-Pr3) (dsDNA)
DNA 1: TACCGAACGCCCACAAGCCTTGAATATAGATGTACCGGTACTGCTGCCGA
DNA 2: TCGGCAGCAGTACCGGTACATCTATATTCAAGGCTTGTGGGCGTTCGGTA
Turning to B1, the binding result is reported as “binds”.
